In the experiment the target is NGAL抗原 (中性粒细胞明胶酶相关载脂蛋白, Neutrophil gelatinase-associated lipocalin) (UniProt P80188 21-198). The experiment is described as follows: BLI, antibody captured on AMC sensor, NGAL in solution.

In patent publication CN114075280A (DONGGUAN PENGZHI BIOTECHNOLOGY CO LTD, dated 2022) one finds Kd, koff and kon data, which are given here for one molecule.

Chain of NGAL抗原 (中性粒细胞明胶酶相关载脂蛋白, Neutrophil gelatinase-associated lipocalin) (P80188 21-198 limits assumed): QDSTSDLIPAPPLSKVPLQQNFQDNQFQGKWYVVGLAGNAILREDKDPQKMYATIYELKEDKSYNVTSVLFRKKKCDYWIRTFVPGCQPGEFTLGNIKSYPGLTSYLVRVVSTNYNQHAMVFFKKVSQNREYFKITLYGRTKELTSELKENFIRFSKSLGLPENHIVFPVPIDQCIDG

B1: 实施例1的抗NGAL单克隆抗体(WT) (antibody, V domains shown)
VH: QIQLKESGPGLVQPSETLSLTCTVSGASVTSYSISWVRQPSGKGPEWMGRMYYNGDTLYNSVIKSRLSISRDTSKNQVFLKMNSLQTDDTGTYYCARDPILPPYFDYWGQGVMVTVSS
VL: DVQMTQSPSYLAASPGESVSISCKFSKSLSNYVAWYQQKPGEAYKLLTHSASTVQSGIPSRISGSGSGTDFTLTIRSLEPEEFGLYYCQQHYENPYTFGAGTKLELKR
As a reminder, the Kd is the equilibrium constant for the complex coming apart. A lower Kd goes with tighter binding. As a reminder, the koff is a measure of how fast the partners let go of each other. Higher therefore signals a short-lived complex. What is called kon is a measure of how fast the partners come together. The low end stands for slower complex formation, the high end for faster complex formation. Turning to B1, the dissociation constant Kd stood at 14.8 nM, the off-rate (koff) came out at 0.000313 s⁻¹ and the on-rate constant (kon) is 21200 M⁻¹ s⁻¹.
